Experimental data published in US20110207917A1 (PATRYS, published 2011).

Molecular target: T1, CD55 antigen (coated on ELISA plate) (UniProt P08174 35-353, limits assumed)
T1 sequence (looked up): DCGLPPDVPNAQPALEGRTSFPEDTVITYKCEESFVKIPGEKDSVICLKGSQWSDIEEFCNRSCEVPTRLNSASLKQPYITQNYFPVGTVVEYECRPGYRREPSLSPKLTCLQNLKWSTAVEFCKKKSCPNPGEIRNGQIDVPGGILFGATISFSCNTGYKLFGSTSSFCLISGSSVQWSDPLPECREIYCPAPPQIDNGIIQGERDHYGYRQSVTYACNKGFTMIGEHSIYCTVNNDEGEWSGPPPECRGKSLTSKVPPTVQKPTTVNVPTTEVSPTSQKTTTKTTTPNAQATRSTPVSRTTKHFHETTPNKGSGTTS
Assay: ELISA on coated CD55 antigen (0.5 µg/well)
Description: In brief, CD55 antigen (0.5 μg/well) was coated in a volume of 50 μl/well. The primary antibody was incubated at 12 μg/ml (0.6 μg/well). Buffer was pH6.5 and for the dilution buffer used was High salt pH8.0.

binding result: no binding (tested: 12 µg/ml)
B1: SAM-6 antibody (human IgM produced by hybridoma deposited as DSM ACC2903) (antibody, V domains shown)
VH: GGGVVQPGRSLRLSCAASGFTFSSYAMHWVRQAPGKGLEWVAVISYDGSNKYYADSVKGRFTISRDNSKNTLYLQMNSLRAEDTAVYYCARDRLAVAGRPFDYWGQGTLVTVSS
VL: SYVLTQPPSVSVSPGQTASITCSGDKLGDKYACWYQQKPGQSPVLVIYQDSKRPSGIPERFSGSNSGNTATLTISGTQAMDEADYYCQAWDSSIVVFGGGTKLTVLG
notes: Human IgM, lambda light chain, purified from hybridoma supernatant; CDR-H3 was not observed; also called SAM-6 HAB; SAM-6 HAB IgM
